Test results published in patent US20260028391A1 (HUMABS BIOMED, published 2026).
Changes are numbered by the printed parent chain. Names and notes keep the numbering of the source.

Key:
[1] = molecular target: fusion glycoprotein (F) of the RSV used in the GFP-based neutralization assay of Table 23 (respiratory syncytial virus); test: cell-based or functional assay
[2] = molecular target: fusion glycoprotein (F) of the MPV (non-D280N) used in the GFP-based neutralization assay of Table 23 (metapneumovirus); test: cell-based or functional assay
[3] = molecular target: RSV fusion glycoprotein (RSV-F) (respiratory syncytial virus); test: biolayer interferometry (BLI), rIgG1 with M428L/N434S
DS-Cav1 RSV F = molecular target: T1, DS-Cav1 RSV F (respiratory syncytial virus); test: ELISA on DS-Cav1 RSV F
T1 construct: also called DC-VCav1

[4] = molecular target: fusion glycoprotein (F) of RSV A GFP (Tables 41 and 42) (respiratory syncytial virus A); test: cell-based or functional assay
[5] = molecular target: fusion glycoprotein (F) of RSV B GFP (Tables 41 and 42) (respiratory syncytial virus B); test: cell-based or functional assay
[6] = molecular target: fusion glycoprotein (F) of MPV A GFP (Tables 41 and 43) (metapneumovirus A); test: cell-based or functional assay
[7] = molecular target: fusion glycoprotein of the RSV used in the neutralization assay of Example 1 (respiratory syncytial virus (strain not …)); test: cell-based or functional assay

B1: MPH12-v17 (VH-FRGL-D62E/VL-D25S) (antibody, V domains shown)
VH: QVQLVESGGGLVKPGGSLRLSCAASGFTFSGFYMKWIRQAPGKGLEWVSSISASGSYTNYAESVEGRFTISRDNAKNSLYLQMNSLRAEDTAVYYCARGDSYCGASACHGEFFHKWGQGTLVTVSS
VL: QSVLTQPPSVSGAPGQRVTISCTGSSSNIGADFDVHWYQQLPGTAPKLLIYGNINRPSGVPDRFSGSRSGTSAFLAITRLQAEDEADYYCQSYDRSLHYVFGAGTKVTVL
notes: also called MPH12 VH-FRGL-D62E / MPH12 VL-D25S
RSV IC 50 (ng/mL), GFP-based in vitro neutralization [1]: 44.9 ng/mL
MPV IC50 (ng/mL), GFP-based in vitro neutralization [2]: 30.4 ng/mL
Kd [3]: 0.39 nM

B2: MPH12 VH-S63A / MPH12 VL-S26A (antibody, V domains shown)
VH: B1 VH with A23V, E62D, S63A, I70V, Y80F, Q82L, N84S
VL: B1 VL with S26D, S27A
notes: MPH12 variant; VH and VL only
EC50 (DS-Cav1 RSV F): 0.0258 µg/mL

B3: MPH12 VH-S63A / MPH12 VL (antibody, V domains shown)
VH: B1 VH with A23V, E62D, S63A, I70V, Y80F, Q82L, N84S
VL: B1 VL with S26D
notes: MPH12 variant; VH and VL only
EC50 (DS-Cav1 RSV F): 0.0358 µg/mL

B4: MPH12 VH / MPH12 VL-FRGL (antibody, V domains shown)
VH: B1 VH with A23V, E62D, I70V, Y80F, Q82L, N84S
VL: B1 VL with S26D, R68K, F74S, R79G, A103T
notes: MPH12 variant; VH and VL only
EC50 (DS-Cav1 RSV F): 0.0358 µg/mL

B5: MPH12-v29 (VH-FRGL-D62E/VL-S26A) (antibody, V domains shown)
VH: B1 VH
VL: B1 VL with S26D, S27A
notes: also called MPH12 VH-FRGL-D62E / MPH12 VL-S26A
RSV IC 50 (ng/mL), GFP-based in vitro neutralization [1]: 60.3 ng/mL
MPV IC50 (ng/mL), GFP-based in vitro neutralization [2]: 35.2 ng/mL
Kd [3]: 0.34 nM

B6: MPH12 VH-D62E / MPH12 VL (antibody, V domains shown)
VH: B1 VH with A23V, I70V, Y80F, Q82L, N84S
VL: B1 VL with S26D
notes: MPH12 variant; VH and VL only
EC50 (DS-Cav1 RSV F): 0.0241 µg/mL

B7: MPH12 VH-D62E / MPH12 VL-FRGL (antibody, V domains shown)
VH: B1 VH with A23V, I70V, Y80F, Q82L, N84S
VL: B1 VL with S26D, R68K, F74S, R79G, A103T
notes: MPH12 variant; VH and VL only
EC50 (DS-Cav1 RSV F): 0.0267 µg/mL

B8: MPH12 VH-S63A / MPH12 VL-D25E (antibody, V domains shown)
VH: B1 VH with A23V, E62D, S63A, I70V, Y80F, Q82L, N84S
VL: B1 VL with S26E
notes: MPH12 variant; VH and VL only
EC50 (DS-Cav1 RSV F): 0.0406 µg/mL

B9: MPH12 VH-S63A / MPH12 VL-D25S (antibody, V domains shown)
VH: B1 VH with A23V, E62D, S63A, I70V, Y80F, Q82L, N84S
VL: B1 VL
notes: MPH12 variant; VH and VL only
EC50 (DS-Cav1 RSV F): 0.0249 µg/mL

B10: MPH12 VH-D62E / MPH12 VL-S26A (antibody, V domains shown)
VH: B1 VH with A23V, I70V, Y80F, Q82L, N84S
VL: B1 VL with S26D, S27A
notes: MPH12 variant; VH and VL only
EC50 (DS-Cav1 RSV F): 0.031 µg/mL

B11: MPH12 VH-D62E / MPH12 VL-D25S (antibody, V domains shown)
VH: B1 VH with A23V, I70V, Y80F, Q82L, N84S
VL: B1 VL
notes: MPH12 variant; VH and VL only
EC50 (DS-Cav1 RSV F): 0.0236 µg/mL

B12: MPH12 VH-FRGL-S63A / MPH12 VL-D25E (antibody, V domains shown)
VH: B1 VH with E62D, S63A
VL: B1 VL with S26E
notes: MPH12 variant; VH and VL only
EC50 (DS-Cav1 RSV F): 0.0368 µg/mL

B13: MPH12 VH / MPH12 VL-S26A (antibody, V domains shown)
VH: B1 VH with A23V, E62D, I70V, Y80F, Q82L, N84S
VL: B1 VL with S26D, S27A
notes: MPH12 variant; VH and VL only
EC50 (DS-Cav1 RSV F): 0.0508 µg/mL

B14: MPH12 VH-FRGL-D62E / MPH12 VL-D25E (antibody, V domains shown)
VH: B1 VH
VL: B1 VL with S26E
notes: MPH12 variant; VH and VL only
EC50 (DS-Cav1 RSV F): 0.0397 µg/mL

B15: MPH12 VH-FRGL-S63A / MPH12 VL-FRGL (antibody, V domains shown)
VH: B1 VH with E62D, S63A
VL: B1 VL with S26D, R68K, F74S, R79G, A103T
notes: MPH12 variant; VH and VL only
EC50 (DS-Cav1 RSV F): 0.0153 µg/mL

B16: MPH12 VH-FRGL-D62E / MPH12 VL (antibody, V domains shown)
VH: B1 VH
VL: B1 VL with S26D
notes: MPH12 variant; VH and VL only
EC50 (DS-Cav1 RSV F): 0.051 µg/mL

B17: MPH12-rIgG1-LS (antibody, V domains shown)
VH: B1 VH with A23V, E62D, I70V, Y80F, Q82L, N84S
VL: B1 VL with S26D
IC50 (ng/ml), RSV A GFP neutralization [4]: 6.55 ng/mL
IC50 (ng/ml), RSV B GFP neutralization [5]: 5.23 ng/mL
IC50 (ng/ml), MPV A GFP neutralization [6]: 13 ng/mL

B18: MPH12 VH-D62E / MPH12 VL-D25E (antibody, V domains shown)
VH: B1 VH with A23V, I70V, Y80F, Q82L, N84S
VL: B1 VL with S26E
notes: MPH12 variant; VH and VL only
EC50 (DS-Cav1 RSV F): 0.0274 µg/mL

B19: MPH12 VH-FRGL-D62E / MPH12 VL-FRGL (antibody, V domains shown)
VH: B1 VH
VL: B1 VL with S26D, R68K, F74S, R79G, A103T
notes: MPH12 variant; VH and VL only
EC50 (DS-Cav1 RSV F): 0.0349 µg/mL

B20: MPH12 VH-FRGL-S63A / MPH12 VL (antibody, V domains shown)
VH: B1 VH with E62D, S63A
VL: B1 VL with S26D
notes: MPH12 variant; VH and VL only
EC50 (DS-Cav1 RSV F): 0.0238 µg/mL

B21: MPH12 VH / MPH12 VL-D25E (antibody, V domains shown)
VH: B1 VH with A23V, E62D, I70V, Y80F, Q82L, N84S
VL: B1 VL with S26E
notes: MPH12 variant; VH and VL only
EC50 (DS-Cav1 RSV F): 0.0438 µg/mL

B22: MPH12 VH-S63A / MPH12 VL-FRGL (antibody, V domains shown)
VH: B1 VH with A23V, E62D, S63A, I70V, Y80F, Q82L, N84S
VL: B1 VL with S26D, R68K, F74S, R79G, A103T
notes: MPH12 variant; VH and VL only
EC50 (DS-Cav1 RSV F): 0.0254 µg/mL

B23: MPH12 VH / MPH12 VL-D25S (antibody, V domains shown)
VH: B1 VH with A23V, E62D, I70V, Y80F, Q82L, N84S
VL: B1 VL
notes: MPH12 variant; VH and VL only
EC50 (DS-Cav1 RSV F): 0.0235 µg/mL

B24: MPK190-rIgG1-LS (antibody, V domains shown)
VH: EVQLVESGGGLVKPGGSLTLSCAASGFSISGYGMNWVRQAPGRGLEWVASISASSTYIYYADSMKGRFTISRDNGKTSLYLQMKSLRAEDTAVYYCARAPIEPPYFDLWGRGTLVTVSS
VL: QSVLTQPPSVSGAPGQRVTISCTGSNSNIGAGYDVHWYQHLPGKAPKVLIYGNNNRPSVVPDRFSGSNSGASASLAISGLQAEDEADYFCQSYDRRLSGPIFGGGTKLTVL
IC50 (ng/ml), RSV A GFP neutralization; sample MPK190-rIgG1-LS/4B6 [4]: 3.73 ng/mL
IC50 (ng/ml), RSV A GFP neutralization; sample MPK190-rIgG1-LS/KYT [4]: 3.88 ng/mL
IC50 (ng/ml), RSV A GFP neutralization; stressed sample MPK190-rIgG1-LS day 0 [4]: 3.21 ng/mL
IC50 (ng/ml), RSV A GFP neutralization; stressed sample MPK190-rIgG1-LS day 7 [4]: 2.94 ng/mL
IC50 (ng/ml), RSV A GFP neutralization; stressed sample MPK190-rIgG1-LS day 12 (day 13 in Table 41) [4]: 7.02 ng/mL
IC50 (ng/ml), RSV B GFP neutralization; sample MPK190-rIgG1-LS/4B6 [5]: 6.39 ng/mL
IC50 (ng/ml), RSV B GFP neutralization; sample MPK190-rIgG1-LS/KYT [5]: 3.36 ng/mL
IC50 (ng/ml), RSV B GFP neutralization; stressed sample MPK190-rIgG1-LS day 0 [5]: 4.1 ng/mL
IC50 (ng/ml), RSV B GFP neutralization; stressed sample MPK190-rIgG1-LS day 7 [5]: 4.4 ng/mL
IC50 (ng/ml), RSV B GFP neutralization; stressed sample MPK190-rIgG1-LS day 12 (day 13 in Table 41) [5]: 4.51 ng/mL
IC50 (ng/ml), MPV A GFP neutralization; sample MPK190-rIgG1-LS/4B6 [6]: 6.16 ng/mL
IC50 (ng/ml), MPV A GFP neutralization; sample MPK190-rIgG1-LS/KYT [6]: 7.9 ng/mL
IC50 (ng/ml), MPV A GFP neutralization; stressed sample MPK190-rIgG1-LS day 0 [6]: 7.22 ng/mL
IC50 (ng/ml), MPV A GFP neutralization; stressed sample MPK190-rIgG1-LS day 7 [6]: 5.8 ng/mL
IC50 (ng/ml), MPV A GFP neutralization; stressed sample MPK190-rIgG1-LS day 13 [6]: 8.39 ng/mL

B25: MPK104-rIgG1-LS (antibody, V domains shown)
VH: EVQLVESGGGLVKPGGSLRLSCAASGFTIDGYGMNWVRQAPGKGLEWVSSISASSNYIYYADSMKGRFTISRDNGKNSLYLQMHSLRVEDTGVYYCARAPLEPPYFDLWGRGTLVTVSS
VL: QSVLTQPPSVSGAPGQRVTISCSGGSSNIGAGYDVHWYQQVPGKGPKVLIYGNNNRPSGVPDRFSGSNFGASASLAITGLQADDEADYFCQSYDRRLGGPVFGGGTKLTVL
IC50 (ng/ml), RSV A GFP neutralization [4]: 7.44 ng/mL
IC50 (ng/ml), RSV B GFP neutralization [5]: 5.23 ng/mL
IC50 (ng/ml), MPV A GFP neutralization [6]: 6.79 ng/mL

B26: MPK169-v2 (antibody, V domains shown)
VH: EVQLVQSGAEVKKPGESLTISCQTSGYSFINYWIGWVRQMPGKGLEWMGVIYPFDSDTEYSPSFRGHVTISADKSINTAYLQWNSLGASDTAMYYCARFTFGIALVSGDVNGEGHAFDVWGRGTLVTVSS
VL: EIVLTQSPPTLSVSPGQRATLSCRASQSVADKLAWYQQRPGQAPRLLIYGASSRATGVPARFSGSGSETEFTLTITSLQSEDFALYYCHQYNNWPHAFGQGTRLVIK
RSV Neutralization - IC50 [7]: 0.0014 µg/mL

B27: MPK77-rIgG1-LS (antibody, V domains shown)
VH: EVQLVESGGGLVKPGGSLRLSCAASKSFSGYYMIWIRQAPGRGLEWIADISGSSTYTDYADSVKGRFTISRDNTRNTLYLQMNSLRPEDTAVYYCATEQVPSPGPFDLWGPGTLVTVSS
VL: QSVLTQPPSVSGAPGQRVIISCTGSSSNIGAGYDVHWYQQFPGTSPKLLIYRNTNRPSGVPDRFSGFKSGASAALAITGLQAEDEADYYCQSYDRSLSGWAFGGGTKVTVL
IC50 (ng/ml), RSV A GFP neutralization [4]: 6.77 ng/mL
IC50 (ng/ml), RSV B GFP neutralization [5]: 7.32 ng/mL
IC50 (ng/ml), MPV A GFP neutralization [6]: 12.9 ng/mL
